Assay [1] deals with T1, B cell-activating factor (BAFF) (UniProt Q9Y275, biotin (NHS-LC-Biotin, 3:1 molar ratio of biotin to protein) in the BLI assay; not biotinylated when coated on ELISA plates).
T1 construct: probably a soluble recombinant human BAFF (surmise); The same antigen was used for immunisation, panning, BLI, ELISA and the cell assay; also called B lymphocyte stimulator; BLyS
As to the kind of experiment: BLI; Octet RED; biotinylated BAFF (20 ug/mL) loaded on streptavidin biosensors; sdAbs 1.25-20 uM as analyte; PBST (PBS pH 7.4, 0.1% BSA, 0.02% Tween-20); room temperature; association 300 s, dissociation 1500 s; global 1:1 fit; 'relative affinity'. The settings on record: both partners purified.

Assay [2] addresses T1, B cell-activating factor (BAFF). Nature of the assay: ELISA; competition ELISA; BAFF (10 ug/mL) coated; sdAb (0-500 ug/mL) mixed with BCMA (50 ug/mL), 2 h at 37 C; bound BCMA detected with HRP goat anti-human IgG. Conditions: both partners purified. (In general: ELISA stands for enzyme-linked immunosorbent assay.)
The target is the same in assay [3].
Target sequence in this assay (Q9Y275 134-285): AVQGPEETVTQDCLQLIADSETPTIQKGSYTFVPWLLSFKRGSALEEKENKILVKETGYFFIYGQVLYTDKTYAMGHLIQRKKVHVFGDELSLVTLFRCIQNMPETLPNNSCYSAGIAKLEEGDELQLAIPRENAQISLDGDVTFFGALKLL
The target is the same in assay [4]. Nature of the assay: cell-based or functional assay.
Assay [5] shares this target. As to the kind of experiment: ELISA; competition ELISA; BAFF (10 ug/mL) coated; sdAb (0-100 ug/mL) mixed with TACI (10 ug/mL), 2 h at 37 C; bound TACI detected with HRP goat anti-human IgG. Conditions: both partners purified.

A word on the Kd: it is the free concentration of one partner at which half of the binding sites on the other are occupied at equilibrium, for simple one-to-one binding. As usually defined, the koff is a measure of how fast the partners let go of each other. As usually defined, the kon is the second-order rate constant of association.

B1: anti-BAFF52 (VHH)
VHH: HVQLVDSGGGLVQAGGSLRLSCAASGRSFKNYHMGWFRQAPGKEREFVAAINGRGSRTKYADSVKGRFTISRDNAERTVRLEMNSLKPEDTAVYYCAAGGPEFYRGRLEDYAYWGPGTQVTVSS
notes: Soluble sdAb of about 15 kDa from an immune alpaca library; also called clone 52; anti-BAFF52 sdAb; source: E. coli TG1, periplasm, vector pSJF2, purified (Ni-NTA)
On to B1, for which, in assay [1], the Kd was found to be 3180 nM, the koff was 0.0182 s⁻¹ and the kon came out at 5710 M⁻¹ s⁻¹.

B2: anti-BAFFG3 (VHH)
VHH: HVQLVDSGGGLVAGGSLRLSCAASGRTFSMSAVAWFRQAPGKEREFVAAISKSSISTYYADSVKGRFTISRDNARNTVNLQMNSLKPEDTAVYYCNSALNGRLPGRHWGQGTQVTVSS
notes: Soluble sdAb of about 15 kDa from an immune alpaca library; also called clone G3; anti-BAFFG3 sdAb; source: E. coli TG1, periplasm, vector pSJF2, purified (Ni-NTA)
Take B2: in assay [1], the Kd was determined as 823 nM, the koff came to 0.00239 s⁻¹ and the kon turned out to be 2900 M⁻¹ s⁻¹. Besides, the “inhibition ratio of BCMA binding to BAFF at 500 ug/mL sdAb” value in assay [2] is 33%.

B3: baff41 (VHH)
VHH: HVQLVDSGGGLVQPGGSLRLSCTASGRTFRDYAMGWFRQAPGKEREFVAAIIGRGASTQYADFVKGRFTISRDNAKNTVYLQMNSLRPEDTAVYYCHAYDPRRNGDYWGQGTQVTVSS
In the case of B3, the binding result in assay [3] was “binds”.

B4: anti-BAFF64 (VHH)
VHH: QVQLVDSGGGLVQAGGSLRLSCVASGALISRRGMGWYRQAPGRQRELVAGISSDGTTNYAQSVEGRFTISRDNAKRSVYLQMNSLKPEDTAVYYCHARTRWKSYWGQGTQVTVSS
notes: Soluble sdAb of about 15 kDa from an immune alpaca library; also called clone 64; anti-BAFF64 sdAb; source: E. coli TG1, periplasm, vector pSJF2, purified (Ni-NTA)
Turning to B4, the “inhibitory ratio of BAFF-induced (750 ng/mL) Raji cell proliferation, CCK-8 assay, sdAb 0-100 ug/mL; value at 100 ug/mL” value in assay [4] was 55%. In addition, in assay [1], the Kd was determined as 319 nM, the koff was 0.000729 s⁻¹ and the kon came to 2290 M⁻¹ s⁻¹. Moreover, the “inhibition ratio of TACI binding to BAFF at 100 ug/mL sdAb” value in assay [5] was found to be 31%.

B5: bafff4 (VHH)
VHH: HVQLVDSGGGLVQAGGSLRLSCTVSGRTSRYAMAWFRQAPGKGREFVAGVNRSGGRPNYSNSVKGRFTISRDNAKNTVYLQMNGLKPEDTAVYYCAAEDRISQSYEYWGQGTQVTVSS
Turning to B5, the binding result in assay [3] is reported as “binds”.

B6: baffb2 (VHH)
VHH: HVQLVDSGGGLVQAGGSLRLSCAASGRSFRRYAMAWFRQTPGKEREFVAAISRSGGSTSYADSVKGRFTISRDNVKNTVYLQMNSLKPEDTAIYYCAADRWGSPTDLRLPRELDYWGQGTHVTVSS
For B6, the binding result in assay [3] is “binds”.

B7: baffb11 (VHH)
VHH: HVQLVDSGGGLVQAGGSLRLSCAASGRTFSSYAMGWFRQAPGKEREFVAAISWSGGRTYYADSVKGRFTISRNNAKNTVYLQMNNLKPEDAAVYYCAARSRASLSGTPLSSPSYYRYWGQGTQVTVSS
Regarding B7, the binding result in assay [3] was “binds”.

B8: baffh1 (VHH)
VHH: HVQLVDSGGGSVQTGDSLTLSCVQSGRTFRSYAMAWYRQAPGKERELVARISSGYSTNYLDSVKGRFTISRDNDKNTFYLQMNSLRPEDTAVYYCNSALNGRLPGRHWGQGTQVTVSS
Regarding B8, the binding result in assay [3] is “binds”.

B9: baffc6 (VHH)
VHH: HVQLVDSGGGLVQAGGSLRLSCAAPRNTFSRYAMAWYRQAPGKRRESVASISSGGISHYTDSVKGRFTISRDNAKNTVYLQMNSLKPEDSAVYYCAASREWGLLRHRPGYWGQGTQVTVSS
Consider B9, for which the binding result in assay [3] is recorded as “binds”.
